Molecular target: Ubiquitin (Homo sapiens, UniProt P0CG48)
Assay: BLI

B1: MERS-CoV papain-like protease (PLpro) PLpro (protein)
chain: QLTIEVLVTVDGVNFRTVVLNNKNTYRSQLGCVFFNGADISDTIPDEKQNGHSLYLADNLTADETKALKELYGPVDPTFLHRFYSLKAAVHKWKMVVCDKVRSLKLSDNNCYLNAVIMTLDLLKDIKFVIPALQHAFMKHKGGDSTDFIALIMAYGNCTFGAPDDASRLLHTVLAKAELCCSARMVWREWCNVCGIKDVVLQGLKACCYVGVQTVEDLRARMTYVCQCGGERHRQIVEHTTPWLLLSGTPNEKLVTTSTAPDFVAFNVFQGIETAVGHYVHARLKGGLILKFDSGTVSKTSDWKCKVTDVLFPGQKYSSDCN
Kd: 40.8 µM

Reference: paper PMC11637584 (2024)
